The values that follow come from the supplement of paper PMC9112550, “Optimization of the antimicrobial peptide Bac7 by deep mutational scanning” (BMC Biology, 2022).

This data set relates to Escherichia coli TOP10. The data set can be described thus: shrunken log2 fold change of peptide-encoding DNA abundance (4.5 h post-induction vs induction); higher = less antimicrobial activity (less host growth inhibition). The following applies: time post-induction: 4.5 h; library: site-saturation at positions 5, 18, 19, 20.
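Also: peptides expressed intracellularly from a pBAD plasmid library in pooled LB shake-flask culture, induced with 0.3% L-arabinose, DNA abundance read by NGS, three biological replicates, DESeq2 with apeglm shrinkage.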

For RRIRLRPPRLPRPRPRPKKSPRP, the “shrunken log2 fold change” value turned out to be 0.018.

As to RRIRDRPPRLPRPRPRPRFFPRP, the “shrunken log2 fold change” value came to 0.226.

In the case of RRIRWRPPRLPRPRPRPCLGPRP, the “shrunken log2 fold change” value came out at 0.0309.

With RRIRSRPPRLPRPRPRPMYYPRP, the “shrunken log2 fold change” value was -0.468.

As to RRIRERPPRLPRPRPRPDEKPRP, the “shrunken log2 fold change” value was found to be 0.147.

Take RRIRGRPPRLPRPRPRPQAHPRP: the “shrunken log2 fold change” value was 0.441.

As to RRIRPRPPRLPRPRPRPWKLPRP, the “shrunken log2 fold change” value was -0.0861.

Regarding RRIRIRPPRLPRPRPRPLVCPRP, the “shrunken log2 fold change” value was -0.346.

Consider RRIRCRPPRLPRPRPRPCKIPRP, for which the “shrunken log2 fold change” value is -0.543.

With RRIRFRPPRLPRPRPRPECHPRP, the “shrunken log2 fold change” value came to 0.0585.

Turning to RRIRLRPPRLPRPRPRPCSQPRP, the “shrunken log2 fold change” value was -0.0964.

For RRIRWRPPRLPRPRPRPCYTPRP, the “shrunken log2 fold change” value is -0.382.

Take RRIRQRPPRLPRPRPRPSTYPRP: the “shrunken log2 fold change” value is -0.884.

On to RRIRARPPRLPRPRPRPQGMPRP, for which the “shrunken log2 fold change” value was 0.233.

In the case of RRIRQRPPRLPRPRPRPKACPRP, the “shrunken log2 fold change” value turned out to be 0.0193.

Consider RRIRCRPPRLPRPRPRPPARPRP, for which the “shrunken log2 fold change” value came out at 0.735.

Consider RRIRKRPPRLPRPRPRPMIVPRP, for which the “shrunken log2 fold change” value turned out to be 0.00271.

Take RRIRHRPPRLPRPRPRPYYVPRP: the “shrunken log2 fold change” value is -0.0196.

Take RRIRWRPPRLPRPRPRPWPPPRP: the “shrunken log2 fold change” value was 0.546.

Turning to RRIRRRPPRLPRPRPRPKCGPRP, the “shrunken log2 fold change” value is 0.0229.

With RRIRTRPPRLPRPRPRPWEMPRP, the “shrunken log2 fold change” value was -0.0783.

Regarding RRIRHRPPRLPRPRPRPTSMPRP, the “shrunken log2 fold change” value was -0.0792.

Consider RRIRCRPPRLPRPRPRPECPPRP, for which the “shrunken log2 fold change” value turned out to be 0.293.

In the case of RRIRYRPPRLPRPRPRPIQLPRP, the “shrunken log2 fold change” value is -0.0605.

For the sequence RRIRRRPPRLPRPRPRPDLIPRP, the “shrunken log2 fold change” value is 0.0201.

Regarding RRIRCRPPRLPRPRPRPRGTPRP, the “shrunken log2 fold change” value was 0.0528.

Take RRIRPRPPRLPRPRPRPQEKPRP: the “shrunken log2 fold change” value is -0.0282.

For RRIRMRPPRLPRPRPRPDLFPRP, the “shrunken log2 fold change” value is 0.803.

For the sequence RRIRLRPPRLPRPRPRPEMSPRP, the “shrunken log2 fold change” value is -0.0316.

On to RRIRVRPPRLPRPRPRPFGKPRP, for which the “shrunken log2 fold change” value was -0.151.

Take RRIRWRPPRLPRPRPRPWGTPRP: the “shrunken log2 fold change” value is -0.0421.

On to RRIRSRPPRLPRPRPRPPEEPRP, for which the “shrunken log2 fold change” value is -0.0451.

RRIRTRPPRLPRPRPRPEQTPRP: the “shrunken log2 fold change” value came out at 0.303.

Take RRIRTRPPRLPRPRPRPATEPRP: the “shrunken log2 fold change” value is -0.0814.

On to RRIRLRPPRLPRPRPRPRRRPRP, for which the “shrunken log2 fold change” value was determined as 0.395.

With RRIRYRPPRLPRPRPRPQTCPRP, the “shrunken log2 fold change” value is -0.0146.

Take RRIRQRPPRLPRPRPRPAYQPRP: the “shrunken log2 fold change” value was -0.00193.

Consider RRIRNRPPRLPRPRPRPVRYPRP, for which the “shrunken log2 fold change” value was -0.0196.

Take RRIRMRPPRLPRPRPRPMHDPRP: the “shrunken log2 fold change” value is 0.192.

As for RRIRKRPPRLPRPRPRPENSPRP, the “shrunken log2 fold change” value is -0.131.

For RRIRLRPPRLPRPRPRPPYCPRP, the “shrunken log2 fold change” value was -0.0882.

With RRIRNRPPRLPRPRPRPLSDPRP, the “shrunken log2 fold change” value was -0.0613.

With RRIRLRPPRLPRPRPRPQGKPRP, the “shrunken log2 fold change” value amounted to 0.0467.

Regarding RRIRFRPPRLPRPRPRPIFWPRP, the “shrunken log2 fold change” value is 0.192.

For the sequence RRIRFRPPRLPRPRPRPDTKPRP, the “shrunken log2 fold change” value was -0.123.

RRIRQRPPRLPRPRPRPRCGPRP: the “shrunken log2 fold change” value came to 0.236.

For the sequence RRIRPRPPRLPRPRPRPAGFPRP, the “shrunken log2 fold change” value amounted to 0.301.

In the case of RRIRERPPRLPRPRPRPMYGPRP, the “shrunken log2 fold change” value was -0.739.

As to RRIRQRPPRLPRPRPRPGIPPRP, the “shrunken log2 fold change” value is -0.0269.

As to RRIRQRPPRLPRPRPRPRKYPRP, the “shrunken log2 fold change” value was -0.2.
